Columns and labels:
COI1-JAZ9 interaction [1] = assay: Quantitative liquid Y2H assays (Beta-Glo, RLU); format: cell-based, Arabidopsis; conditions: yeast; for COR-dependent COI1-JAZ9 interaction: 1 μM COR; for JA-Ile-dependent COI1-JAZ9 interaction: 10 or 30 μM JA-Ile
Experimental: Yeast EGY48 strain carrying the p8Op:LacZ reporter plasmid was co-transformed with pGilda:COI1 (or COI1 mutants) and pB42AD:JAZ9 (or other JAZs) (Clontech). Colonies were selected on SD minimal plates (BD Biosciences) supplemented with the—uracil (U)/-tryptophan (W)/-histidine (H) amino acid drop out solution (Clontech). Yeast colonies were cultured overnight in liquid SD-UWH medium, harvested, washed twice in sterile water, and the absorbance (OD600) of the cultures was adjusted to 0.2 in liquid SD galactose/raffinose-UWH medium (BD Biosciences).
For liquid Y2H assays, cultures were supplemented with designated concentrations of JA-Ile (10 or 30 μM), COR (1 μM), or DMSO. After 16-h incubation with ligands, the liquid cultures were processed through the Beta-Glo Assay system (Promega) for detecting the β-galactosidase activity. […] Protein expression in yeast was detected using anti-LexA antibody (1:5,000; Upstate Biotechnology) for detection of COI1 expression from pGilda vector and anti-HA (1:5,000; Roche Life Science) antibody for detection of JAZ9 expression in pB42AD vector.

COI1-JAZ9 interaction [2] = assay: Y2H assays on plates for protein-protein interaction; format: cell-based, Arabidopsis; conditions: 10 μM COR, yeast

| Molecule | COR-dependent COI1-JAZ9 interaction (COI1-JAZ9 interaction [2]) | COR-dependent COI1-JAZ9 interaction (COI1-JAZ9 interaction [1]; liquid Y2H) | JA-Ile-dependent COI1-JAZ9 interaction (COI1-JAZ9 interaction [1]; liquid Y2H) | also measured |
| --- | --- | --- | --- | --- |
| CC/C=C\C[C@H]1C(=O)CC[C@@H]1CC(=O)N[C@H](C(=O)O)[C@@H](C)CC [JA-Ile, jasmonoyl-L-isoleucine, reference compound] | – | – | – | concentrations equivalent in promoting the COI1-JAZ9 interaction (COI1-JAZ9 interaction [1]; JA-Ile is a mixture of active and inactive isomers, COR pure): 10 µM |
| R351: COI1 alanine substitution mutant at R351 (protein, UniProt O04197 1-592, looked up, variant R351A) Coronatine-insensitive …: MEDPDIKRCKLSCVATVDDVIEQVMTYITDPKDRDSASLVCRRWFKIDSETREHVTMALCYTATPDRLSRRFPNLRSLKLKGKPRAAMFNLIPENWGGYVTPWVTEISNNLRQLKSVHFRRMIVSDLDLDRLAKARADDLETLKLDKCSGFTTDGLLSIVTHCRKIKTLLMEESSFSEKDGKWLHELAQHNTSLEVLNFYMTEFAKISPKDLETIARNCRSLVSVKVGDFEILELVGFFKAAANLEEFCGGSLNEDIGMPEKYMNLVFPRKLCRLGLSYMGPNEMPILFPFAAQIRKLDLLYALLETEDHCTLIQKCPNLEVLETRNVIGDRGLEVLAQYCKQLKRLRIEAGADEQGMEDEEGLVSQRGLIALAQGCQELEYMAVYVSDITNESLESIGTYLKNLCDFRLVLLDREERITDLPLDNGVRSLLIGCKKLRRFAFYLRQGGLTDLGLSYIGQYSPNVRWMLLGYVGESDEGLMEFSRGCPNLQKLEMRGCCFSERAIAAAVTKLPSLRYLWVQGYRASMTGQDLMQMARPYWNIELIPSRRVPEVNQQGEIREMEHPAHILAYYSLAGQRTDCPTTVRVLKEPI | reduced | – | – | – |
| D354: COI1 alanine substitution mutant at D354 (protein, UniProt O04197 1-592, looked up, variant D354A) Coronatine-insensitive …: MEDPDIKRCKLSCVATVDDVIEQVMTYITDPKDRDSASLVCRRWFKIDSETREHVTMALCYTATPDRLSRRFPNLRSLKLKGKPRAAMFNLIPENWGGYVTPWVTEISNNLRQLKSVHFRRMIVSDLDLDRLAKARADDLETLKLDKCSGFTTDGLLSIVTHCRKIKTLLMEESSFSEKDGKWLHELAQHNTSLEVLNFYMTEFAKISPKDLETIARNCRSLVSVKVGDFEILELVGFFKAAANLEEFCGGSLNEDIGMPEKYMNLVFPRKLCRLGLSYMGPNEMPILFPFAAQIRKLDLLYALLETEDHCTLIQKCPNLEVLETRNVIGDRGLEVLAQYCKQLKRLRIERGAAEQGMEDEEGLVSQRGLIALAQGCQELEYMAVYVSDITNESLESIGTYLKNLCDFRLVLLDREERITDLPLDNGVRSLLIGCKKLRRFAFYLRQGGLTDLGLSYIGQYSPNVRWMLLGYVGESDEGLMEFSRGCPNLQKLEMRGCCFSERAIAAAVTKLPSLRYLWVQGYRASMTGQDLMQMARPYWNIELIPSRRVPEVNQQGEIREMEHPAHILAYYSLAGQRTDCPTTVRVLKEPI | reduced | – | – | – |
| G357: COI1 alanine substitution mutant at G357 (protein, UniProt O04197 1-592, looked up, variant G357A) Coronatine-insensitive …: MEDPDIKRCKLSCVATVDDVIEQVMTYITDPKDRDSASLVCRRWFKIDSETREHVTMALCYTATPDRLSRRFPNLRSLKLKGKPRAAMFNLIPENWGGYVTPWVTEISNNLRQLKSVHFRRMIVSDLDLDRLAKARADDLETLKLDKCSGFTTDGLLSIVTHCRKIKTLLMEESSFSEKDGKWLHELAQHNTSLEVLNFYMTEFAKISPKDLETIARNCRSLVSVKVGDFEILELVGFFKAAANLEEFCGGSLNEDIGMPEKYMNLVFPRKLCRLGLSYMGPNEMPILFPFAAQIRKLDLLYALLETEDHCTLIQKCPNLEVLETRNVIGDRGLEVLAQYCKQLKRLRIERGADEQAMEDEEGLVSQRGLIALAQGCQELEYMAVYVSDITNESLESIGTYLKNLCDFRLVLLDREERITDLPLDNGVRSLLIGCKKLRRFAFYLRQGGLTDLGLSYIGQYSPNVRWMLLGYVGESDEGLMEFSRGCPNLQKLEMRGCCFSERAIAAAVTKLPSLRYLWVQGYRASMTGQDLMQMARPYWNIELIPSRRVPEVNQQGEIREMEHPAHILAYYSLAGQRTDCPTTVRVLKEPI | reduced | – | – | – |
| R85A: COI1 alanine substitution mutant at R85 (protein) MEDPDIKRCKLSCVATVDDVIEQVMTYITDPKDRDSASLVCRRWFKIDSETREHVTMALCYTATPDRLSRRFPNLRSLKLKGKPAAAMFNLIPENWGGYVTPWVTEISNNLRQLKSVHFRRMIVSDLDLDRLAKARADDLETLKLDKCSGFTTDGLLSIVTHCRKIKTLLMEESSFSEKDGKWLHELAQHNTSLEVLNFYMTEFAKISPKDLETIARNCRSLVSVKVGDFEILELVGFFKAAANLEEFCGGSLNEDIGMPEKYMNLVFPRKLCRLGLSYMGPNEMPILFPFAAQIRKLDLLYALLETEDHCTLIQKCPNLEVLETRNVIGDRGLEVLAQYCKQLKRLRIERGADEQGMEDEEGLVSQRGLIALAQGCQELEYMAVYVSDITNESLESIGTYLKNLCDFRLVLLDREERITDLPLDNGVRSLLIGCKKLRRFAFYLRQGGLTDLGLSYIGQYSPNVRWMLLGYVGESDEGLMEFSRGCPNLQKLEMRGCCFSERAIAAAVTKLPSLRYLWVQGYRASMTGQDLMQMARPYWNIELIPSRRVPEVNQQGEIREMEHPAHILAYYSLAGQRTDCPTTVRVLKEPI | – | – | – | differential effect on JA-Ile-dependent vs COR-dependent COI1-JAZ9 interaction (COI1-JAZ9 interaction [1]; liquid Y2H): affect JAIle-dependent interaction more than COR-dependent interaction |
| COI1A86I: COI1 mutant, alanine 86 substituted with isoleucine (protein, left off: small tags and cut ends, COI1 mutant, alanine 86 substituted with isoleucine) MEDPDIKRCKLSCVATVDDVIEQVMTYITDPKDRDSASLVCRRWFKIDSETREHVTMALCYTATPDRLSRRFPNLRSLKLKGKPRIAMFNLIPENWGGYVTPWVTEISNNLRQLKSVHFRRMIVSDLDLDRLAKARADDLETLKLDKCSGFTTDGLLSIVTHCRKIKTLLMEESSFSEKDGKWLHELAQHNTSLEVLNFYMTEFAKISPKDLETIARNCRSLVSVKVGDFEILELVGFFKAAANLEEFCGGSLNEDIGMPEKYMNLVFPRKLCRLGLSYMGPNEMPILFPFAAQIRKLDLLYALLETEDHCTLIQKCPNLEVLETRNVIGDRGLEVLAQYCKQLKRLRIERGADEQGMEDEEGLVSQRGLIALAQGCQELEYMAVYVSDITNESLESIGTYLKNLCDFRLVLLDREERITDLPLDNGVRSLLIGCKKLRRFAFYLRQGGLTDLGLSYIGQYSPNVRWMLLGYVGESDEGLMEFSRGCPNLQKLEMRGCCFSERAIAAAVTKLPSLRYLWVQGYRASMTGQDLMQMARPYWNIELIPSRRVPEVNQQGEIREMEHPAHILAYYSLAGQRTDCPTTVRVLKEPI | – | reduced | abolished | – |
| COI1A86V: COI1 mutant, alanine 86 substituted with valine (protein, left off: small tags and cut ends, COI1 mutant, alanine 86 substituted with valine) MEDPDIKRCKLSCVATVDDVIEQVMTYITDPKDRDSASLVCRRWFKIDSETREHVTMALCYTATPDRLSRRFPNLRSLKLKGKPRVAMFNLIPENWGGYVTPWVTEISNNLRQLKSVHFRRMIVSDLDLDRLAKARADDLETLKLDKCSGFTTDGLLSIVTHCRKIKTLLMEESSFSEKDGKWLHELAQHNTSLEVLNFYMTEFAKISPKDLETIARNCRSLVSVKVGDFEILELVGFFKAAANLEEFCGGSLNEDIGMPEKYMNLVFPRKLCRLGLSYMGPNEMPILFPFAAQIRKLDLLYALLETEDHCTLIQKCPNLEVLETRNVIGDRGLEVLAQYCKQLKRLRIERGADEQGMEDEEGLVSQRGLIALAQGCQELEYMAVYVSDITNESLESIGTYLKNLCDFRLVLLDREERITDLPLDNGVRSLLIGCKKLRRFAFYLRQGGLTDLGLSYIGQYSPNVRWMLLGYVGESDEGLMEFSRGCPNLQKLEMRGCCFSERAIAAAVTKLPSLRYLWVQGYRASMTGQDLMQMARPYWNIELIPSRRVPEVNQQGEIREMEHPAHILAYYSLAGQRTDCPTTVRVLKEPI | – | reduced | abolished | – |
| COI1A384I: COI1 mutant, alanine 384 substituted with isoleucine (protein, left off: small tags and cut ends, COI1 mutant, alanine 384 substituted with isoleucine) MEDPDIKRCKLSCVATVDDVIEQVMTYITDPKDRDSASLVCRRWFKIDSETREHVTMALCYTATPDRLSRRFPNLRSLKLKGKPRAAMFNLIPENWGGYVTPWVTEISNNLRQLKSVHFRRMIVSDLDLDRLAKARADDLETLKLDKCSGFTTDGLLSIVTHCRKIKTLLMEESSFSEKDGKWLHELAQHNTSLEVLNFYMTEFAKISPKDLETIARNCRSLVSVKVGDFEILELVGFFKAAANLEEFCGGSLNEDIGMPEKYMNLVFPRKLCRLGLSYMGPNEMPILFPFAAQIRKLDLLYALLETEDHCTLIQKCPNLEVLETRNVIGDRGLEVLAQYCKQLKRLRIERGADEQGMEDEEGLVSQRGLIALAQGCQELEYMIVYVSDITNESLESIGTYLKNLCDFRLVLLDREERITDLPLDNGVRSLLIGCKKLRRFAFYLRQGGLTDLGLSYIGQYSPNVRWMLLGYVGESDEGLMEFSRGCPNLQKLEMRGCCFSERAIAAAVTKLPSLRYLWVQGYRASMTGQDLMQMARPYWNIELIPSRRVPEVNQQGEIREMEHPAHILAYYSLAGQRTDCPTTVRVLKEPI | – | disrupted | disrupted | – |

Reference: US10584350B2, “Structurally modified COI1” (Board of Trustees of Michigan State University, priority 2016, dated 2020)
